Assay results taken from paper PMC12147176, “Unstructured protein domains stabilize RNA binding and mediate RNA folding by AUF1”.

Tests used:
His6-p37AUF1(69-287) = His6-p37AUF1(69-287) (human, UniProt Q14103-4 69-287); experiment: fluorescence anisotropy; Anisotropy: 10 mM Tris-HCl pH 8.0, 100 mM KCl (50 mM for Fl-ARE2), 0.5 mM EDTA, 0.1 ug/ul acetylated BSA, 1 ug/ul heparin, 2 mM DTT, 25 C, RNA 0.2-0.4 nM; EMSA: same with 100 mM KCl, 10% glycerol, 1 nM RNA, on ice, UV crosslinked; conditions: protein: recombinant; label: 3' fluorescein
His6-p37AUF1(78-287) = His6-p37AUF1(78-287) (human, UniProt Q14103-4 78-287); experiment: as above; conditions: protein: recombinant; chain copies: 2; label: 3' fluorescein
His6-p37AUF1(69-239) = His6-p37AUF1(69-239) (human, UniProt Q14103-4 69-239); experiment: as above; conditions: protein: recombinant; label: 3' fluorescein
His6-p37AUF1(1-239) [1] = biological target: T1, His6-p37AUF1(1-239) (human, UniProt Q14103-4 1-239); experiment: as above; conditions: protein: recombinant; chain copies: 2; label: 3' fluorescein
His6-p37AUF1(78-239) [2] = biological target: T2, His6-p37AUF1(78-239) (human, UniProt Q14103-4 78-239); experiment: as above; conditions: protein: recombinant; for Kd: label: 3' fluorescein
His6-p37AUF1 wt [3] = biological target: T3, His6-p37AUF1 wt (human, UniProt Q14103-4 1-287); experiment: as above; conditions: protein: recombinant, chain copies: 2; for Kd: label: 3' fluorescein
His6-p37AUF1(30-287) = His6-p37AUF1(30-287) (human, UniProt Q14103-4 30-287); experiment: as above; conditions: protein: recombinant; chain copies: 2; label: 3' fluorescein
p37AUF1 (EK-cleaved) = p37AUF1 (EK-cleaved) (human, UniProt Q14103-4 1-287); experiment: as above; conditions: protein: recombinant; tags: His6 removed by enterokinase; chain copies: 2; label: 3' fluorescein
His6-p37AUF1 W250F = His6-p37AUF1 W250F (human, UniProt Q14103-4 1-287, W250F); experiment: as above; conditions: protein: recombinant; tags: N-term His6; chain copies: 2; label: 3' fluorescein
His6-p37AUF1(Δ69-77) = His6-p37AUF1(Δ69-77) (human, UniProt Q14103-4 1-287, del69-77); experiment: as above; conditions: protein: recombinant; chain copies: 2; label: 3' fluorescein
His6-p37AUF1 W87F [4] = biological target: T4, His6-p37AUF1 W87F (human, UniProt Q14103-4 1-287, W87F); experiment: Trp fluorescence and iodide quenching; 2 uM each; KSV 0.60 vs 6.59 M-1 without RNA; saturates near 1:1; Anisotropy: 10 mM Tris-HCl pH 8.0, 100 mM KCl (50 mM for Fl-ARE2), 0.5 mM EDTA, 0.1 ug/ul acetylated BSA, 1 ug/ul heparin, 2 mM DTT, 25 C, RNA 0.2-0.4 nM; EMSA: same with 100 mM KCl, 10% glycerol, 1 nM RNA, on ice, UV crosslinked; conditions: protein: recombinant; tags: N-term His6; chain copies: 2
His6-p37AUF1(78-239) [5] = biological target: T2, His6-p37AUF1(78-239); experiment: EMSA (UV-crosslinked); Anisotropy: 10 mM Tris-HCl pH 8.0, 100 mM KCl (50 mM for Fl-ARE2), 0.5 mM EDTA, 0.1 ug/ul acetylated BSA, 1 ug/ul heparin, 2 mM DTT, 25 C, RNA 0.2-0.4 nM; EMSA: same with 100 mM KCl, 10% glycerol, 1 nM RNA, on ice, UV crosslinked; conditions: protein: recombinant; label: biotin
His6-p37AUF1 wt [6] = biological target: T3, His6-p37AUF1 wt; experiment: as above; conditions: protein: recombinant; chain copies: 2; label: biotin
His6-p37AUF1(1-239) [7] = biological target: T1, His6-p37AUF1(1-239); experiment: fluorescence anisotropy; first site (Kd1), 50 mM KCl; Anisotropy: 10 mM Tris-HCl pH 8.0, 100 mM KCl (50 mM for Fl-ARE2), 0.5 mM EDTA, 0.1 ug/ul acetylated BSA, 1 ug/ul heparin, 2 mM DTT, 25 C, RNA 0.2-0.4 nM; EMSA: same with 100 mM KCl, 10% glycerol, 1 nM RNA, on ice, UV crosslinked; conditions: protein: recombinant; chain copies: 2; label: 5' fluorescein
His6-p37AUF1(78-239) [8] = biological target: T2, His6-p37AUF1(78-239); experiment: as above; conditions: protein: recombinant; label: 5' fluorescein
His6-p37AUF1 wt [9] = biological target: T3, His6-p37AUF1 wt; experiment: as above; conditions: protein: recombinant; chain copies: 2; label: 5' fluorescein
His6-p37AUF1 W87F [10] = biological target: T4, His6-p37AUF1 W87F; experiment: Trp fluorescence and iodide quenching; 2 uM each; KSV 3.88 M-1; Anisotropy: 10 mM Tris-HCl pH 8.0, 100 mM KCl (50 mM for Fl-ARE2), 0.5 mM EDTA, 0.1 ug/ul acetylated BSA, 1 ug/ul heparin, 2 mM DTT, 25 C, RNA 0.2-0.4 nM; EMSA: same with 100 mM KCl, 10% glycerol, 1 nM RNA, on ice, UV crosslinked; conditions: protein: recombinant; tags: N-term His6; chain copies: 2

T3 sequence (Q14103 other isoform, or with tags, fused parts or gaps): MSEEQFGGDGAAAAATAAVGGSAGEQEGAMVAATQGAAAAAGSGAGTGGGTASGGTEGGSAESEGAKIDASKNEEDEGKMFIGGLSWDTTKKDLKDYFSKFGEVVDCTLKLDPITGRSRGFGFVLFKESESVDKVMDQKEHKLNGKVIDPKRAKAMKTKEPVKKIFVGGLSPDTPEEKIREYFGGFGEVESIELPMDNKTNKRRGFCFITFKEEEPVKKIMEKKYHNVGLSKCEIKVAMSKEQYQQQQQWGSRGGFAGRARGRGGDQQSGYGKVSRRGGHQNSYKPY
T2 sequence (Q14103 other isoform, or with tags, fused parts or gaps): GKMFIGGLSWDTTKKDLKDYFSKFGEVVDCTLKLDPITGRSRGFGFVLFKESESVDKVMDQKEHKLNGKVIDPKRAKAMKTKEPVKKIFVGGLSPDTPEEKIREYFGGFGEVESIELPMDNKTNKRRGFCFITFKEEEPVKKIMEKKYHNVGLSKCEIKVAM
T1 sequence (Q14103 other isoform, or with tags, fused parts or gaps): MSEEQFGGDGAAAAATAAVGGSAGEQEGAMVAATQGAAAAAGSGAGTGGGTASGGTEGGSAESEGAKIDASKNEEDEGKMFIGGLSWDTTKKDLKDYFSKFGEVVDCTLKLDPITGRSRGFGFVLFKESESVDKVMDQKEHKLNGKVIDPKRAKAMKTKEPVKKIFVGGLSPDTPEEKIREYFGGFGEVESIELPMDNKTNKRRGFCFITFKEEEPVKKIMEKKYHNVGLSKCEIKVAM
T4 sequence (Q14103 other isoform, or with tags, fused parts or gaps W87F | W87F W87F): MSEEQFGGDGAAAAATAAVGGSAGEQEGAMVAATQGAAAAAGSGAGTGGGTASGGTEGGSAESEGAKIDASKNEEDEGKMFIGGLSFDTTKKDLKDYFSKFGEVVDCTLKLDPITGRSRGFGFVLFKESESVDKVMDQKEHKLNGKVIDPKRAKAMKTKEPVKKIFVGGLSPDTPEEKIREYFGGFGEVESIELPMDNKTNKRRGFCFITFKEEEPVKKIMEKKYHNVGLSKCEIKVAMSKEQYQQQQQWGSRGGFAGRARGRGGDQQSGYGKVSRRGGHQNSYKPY
His6-p37AUF1(69-239), sequence (Q14103 other isoform, or with tags, fused parts or gaps): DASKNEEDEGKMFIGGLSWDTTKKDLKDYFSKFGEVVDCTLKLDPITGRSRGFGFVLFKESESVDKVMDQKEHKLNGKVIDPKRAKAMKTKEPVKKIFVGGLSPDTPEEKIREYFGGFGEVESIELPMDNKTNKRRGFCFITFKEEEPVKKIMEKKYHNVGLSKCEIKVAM
His6-p37AUF1(30-287), sequence (Q14103 other isoform, or with tags, fused parts or gaps): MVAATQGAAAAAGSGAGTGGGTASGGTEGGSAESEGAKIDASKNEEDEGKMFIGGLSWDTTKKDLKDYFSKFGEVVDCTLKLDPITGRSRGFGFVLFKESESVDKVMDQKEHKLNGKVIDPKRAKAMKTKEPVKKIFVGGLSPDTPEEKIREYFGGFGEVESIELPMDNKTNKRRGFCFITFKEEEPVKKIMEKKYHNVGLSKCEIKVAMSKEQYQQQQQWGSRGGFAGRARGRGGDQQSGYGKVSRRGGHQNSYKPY
His6-p37AUF1 W250F, sequence (Q14103 other isoform, or with tags, fused parts or gaps W250F | W250F W250F): as the sequence (Q14103 other isoform, or with tags, fused parts or gaps W87F | W87F W87F) above, with F87W, W250F counted along it
His6-p37AUF1(78-287), sequence (Q14103 other isoform, or with tags, fused parts or gaps): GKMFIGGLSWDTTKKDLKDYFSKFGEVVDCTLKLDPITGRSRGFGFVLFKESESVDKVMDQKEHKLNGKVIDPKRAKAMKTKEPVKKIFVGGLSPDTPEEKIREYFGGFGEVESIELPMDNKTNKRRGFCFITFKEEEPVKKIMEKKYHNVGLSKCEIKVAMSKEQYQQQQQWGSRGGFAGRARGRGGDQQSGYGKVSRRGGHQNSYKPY
p37AUF1 (EK-cleaved), sequence (Q14103 other isoform, or with tags, fused parts or gaps): as the sequence (Q14103 other isoform, or with tags, fused parts or gaps W87F | W87F W87F) above, with F87W counted along it
His6-p37AUF1(Δ69-77), sequence (Q14103 other isoform, or with tags, fused parts or gaps del69-77 | mutant): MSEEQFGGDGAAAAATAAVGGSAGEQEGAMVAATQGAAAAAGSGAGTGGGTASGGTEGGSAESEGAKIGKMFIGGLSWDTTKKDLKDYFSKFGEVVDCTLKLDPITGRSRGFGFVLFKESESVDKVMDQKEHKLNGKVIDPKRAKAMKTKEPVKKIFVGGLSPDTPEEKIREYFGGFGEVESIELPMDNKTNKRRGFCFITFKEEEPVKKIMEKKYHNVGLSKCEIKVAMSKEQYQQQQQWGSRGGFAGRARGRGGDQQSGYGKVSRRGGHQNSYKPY
His6-p37AUF1(69-287), sequence (Q14103 other isoform, or with tags, fused parts or gaps): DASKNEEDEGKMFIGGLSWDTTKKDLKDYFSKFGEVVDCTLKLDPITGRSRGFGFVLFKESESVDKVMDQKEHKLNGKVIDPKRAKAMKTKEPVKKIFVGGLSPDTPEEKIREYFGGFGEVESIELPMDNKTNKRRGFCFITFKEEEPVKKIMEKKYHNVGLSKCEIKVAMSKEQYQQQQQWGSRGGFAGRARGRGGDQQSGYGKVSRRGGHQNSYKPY

## UUAUUUAUUUAUUUAG (ssRNA) [ARE15-G-Fl]
His6-p37AUF1(69-287)
  Kd: 467 ± 33 nM
His6-p37AUF1(78-287)
  Kd: 1090 ± 69 nM
His6-p37AUF1(69-239)
  Kd: 933 ± 90 nM
His6-p37AUF1(1-239) [1]
  Kd: 176 ± 9 nM
His6-p37AUF1(78-239) [2]
  Kd: 796 ± 103 nM
His6-p37AUF1 wt [3]
  Kd: 110 ± 5 nM

## CCCCUGGCUCACAAAUACCUUAUUUAUUUAUUUAG (ssRNA) [ARE1-Fl]
His6-p37AUF1(30-287)
  Kd: 27 ± 1.4 nM
His6-p37AUF1(69-239)
  Kd: 527 ± 54 nM
p37AUF1 (EK-cleaved)
  Kd: 15 ± 2 nM
His6-p37AUF1(1-239) [1]
  Kd: 101 ± 8 nM
His6-p37AUF1(78-239) [2]
  Kd: 505 ± 34 nM
His6-p37AUF1 W250F
  Kd: 22 ± 2 nM
His6-p37AUF1(Δ69-77)
  Kd: 89 ± 11 nM
His6-p37AUF1 wt [3]
  Kd: 19 ± 3 nM

## CCCCUGGCUCACAAAUACCUUAUUUAUUUAUUUAG (ssRNA) [ARE1 (unlabeled)]
His6-p37AUF1 W87F [4]
  binding result: binds

## UGGCCAAUGCCCUGGCUCACAAAUACCACUG (ssRNA) [Fl-Rβ]
His6-p37AUF1(78-239) [2]; label: 5' fluorescein
  binding result: no binding
His6-p37AUF1 wt [3]; label: 5' fluorescein
  binding result: no binding

## UGGCCAAUGCCCUGGCUCACAAAUACCACUG (ssRNA) [B-Rβ]
His6-p37AUF1(78-239) [5]
  binding result: no binding
His6-p37AUF1 wt [6]
  binding result: no binding

## GUGAUUAUUUAUUAUUUAUUUAUUAUUUAUUUAUUUAG (ssRNA) [Fl-ARE2]
His6-p37AUF1(1-239) [7]
  Kd: 156 ± 7 nM
His6-p37AUF1(78-239) [8]
  Kd: 853 ± 48 nM
His6-p37AUF1 wt [9]
  Kd: 16 ± 3 nM

## UUAUUUAUUUAUUUAG (ssRNA) [ARE15-G (unlabeled)]
His6-p37AUF1 W87F [10]
  binding result: binds
